B1: YESPIFSRDRVNPGALSGSLGQARAACWRTLGSLKPGGEFRAAEQRRAGWVPGAPGFTCSLISSRFPRERFCLRHRSSWRGARRVQCVCPGQTEGLWL (peptide)
chain: YESPIFSRDRVNPGALSGSLGQARAACWRTLGSLKPGGEFRAAEQRRAGWVPGAPGFTCSLISSRFPRERFCLRHRSSWRGARRVQCVCPGQTEGLWL
notes: alternative splicing, WNT10A
B2: VYPVYQPVVSQAGLGELWQWASGKLRGYCWRRGQWHAYSIQCDPHPVFGEGACDCSETEAHGGCQSPRLESFPGQPPGFRGQRF (peptide)
chain: VYPVYQPVVSQAGLGELWQWASGKLRGYCWRRGQWHAYSIQCDPHPVFGEGACDCSETEAHGGCQSPRLESFPGQPPGFRGQRF
notes: gene fusion NDUFB8-> SEC31B

How the values were obtained:
CD4+ T cells = assay: Exogenous autologous healthy donor restimulation assay, TNFα and IFNγ production by CD4+ T cells; format: cell-based, human; set-up: Frequency (TNFα+ IFNγ+ CD4 T cells): unit not given here; settings: donor independent, peptide pool 10 μg/mL, healthy donors; for Fold change (CD4+) vs. DMSO: maximum CD4+ T-cell response (TNFα and IFNγ); for Frequency (TNFα+ IFNγ+ CD4 T cells): maximum CD4+ T-cell response
How it was run: (§1)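 CD1c+ DCs from healthy donor PBMCs pulsed 2 h with 15-mer overlapping neoantigen peptide pools (10 μg/mL), irradiated 50 Gy, then co-cultured 12 days with autologous CD3+ T cells plus IL-15/IL-2. Restimulated day 11 with same pools, overnight with protein inhibitor; intracellular TNFα/IFNγ by flow. Positive: ≥3-fold over DMSO and ≥0.01% double-positive.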

CD8+ T cells = assay: Exogenous autologous healthy donor restimulation assay, TNFα and IFNγ production by CD8+ T cells; format: cell-based, human; set-up: Frequency (TNFα+ IFNγ+ CD8 T cells): unit not given here; settings: for Fold change (CD8+) vs. DMSO: maximum CD8+ T-cell response (TNFα and IFNγ); for Fold change (CD8+) vs. DMSO / Frequency (TNFα+ IFNγ+ CD8 T cells): donor independent, peptide pool 10 μg/mL, healthy donors; for Frequency (TNFα+ IFNγ+ CD8 T cells): maximum CD8+ T-cell response; for Immunogenic (yes/no): positive if CD8+ and/or CD4+ double positive TNFα/IFNγ frequency >=3-fold over DMSO and at least 0.01%
How it was run: as §1

Molecule	Fold change (CD4+) vs. DMSO (CD4+ T cells)	Frequency (TNFα+ IFNγ+ CD4 T cells) (CD4+ T cells)	Fold change (CD8+) vs. DMSO (CD8+ T cells)	Frequency (TNFα+ IFNγ+ CD8 T cells) (CD8+ T cells)	Immunogenic (yes/no) (CD8+ T cells)
B1	12.303	0.071	38.74	0.095	Yes
B2	1.94	0.011	42.81	0.064	Yes
